From patent US20240409906, “INTEGRASES, LANDING PAD ARCHITECTURES, AND ENGINEERED CELLS COMPRISING THE SAME” (Asimov Inc., published 2024)

Columns and labels:
Conditions in all cases: tags: C-terminal GS linker-SV40 NLS
[1] = target: T1, Int21 (Streptococcus mitis B6); assay: cell_activity; attB x attP EGFP inversion reporter, HEK293FT
T1 chain: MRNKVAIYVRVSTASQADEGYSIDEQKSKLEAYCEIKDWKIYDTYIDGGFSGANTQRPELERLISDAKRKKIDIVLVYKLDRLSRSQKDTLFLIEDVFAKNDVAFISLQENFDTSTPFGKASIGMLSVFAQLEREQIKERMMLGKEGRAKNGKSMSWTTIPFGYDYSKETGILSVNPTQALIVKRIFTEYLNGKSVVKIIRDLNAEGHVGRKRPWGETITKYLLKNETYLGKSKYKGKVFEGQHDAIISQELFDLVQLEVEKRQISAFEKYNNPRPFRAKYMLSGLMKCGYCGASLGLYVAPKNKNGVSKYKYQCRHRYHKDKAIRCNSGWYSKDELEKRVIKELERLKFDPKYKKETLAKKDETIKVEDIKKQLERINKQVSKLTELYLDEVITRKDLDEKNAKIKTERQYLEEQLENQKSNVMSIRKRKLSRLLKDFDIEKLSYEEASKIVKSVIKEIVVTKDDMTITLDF

[2] = target: T2, Int14 (Listeria innocua Clip11262); assay: as above
T2 chain: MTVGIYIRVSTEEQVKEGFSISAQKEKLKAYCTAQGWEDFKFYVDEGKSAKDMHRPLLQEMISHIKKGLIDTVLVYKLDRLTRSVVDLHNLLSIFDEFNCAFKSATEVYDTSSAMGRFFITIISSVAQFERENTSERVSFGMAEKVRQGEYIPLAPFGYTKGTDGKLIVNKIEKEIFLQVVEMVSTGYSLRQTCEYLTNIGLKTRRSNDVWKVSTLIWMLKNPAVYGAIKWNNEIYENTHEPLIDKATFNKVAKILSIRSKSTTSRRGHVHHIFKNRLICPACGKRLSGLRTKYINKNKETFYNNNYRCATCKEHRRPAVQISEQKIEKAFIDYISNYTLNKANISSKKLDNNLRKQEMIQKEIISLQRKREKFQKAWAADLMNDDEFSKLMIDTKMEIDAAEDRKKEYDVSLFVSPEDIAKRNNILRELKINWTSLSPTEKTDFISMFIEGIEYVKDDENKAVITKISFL

[3] = target: T3, Int16 (Enterococcus faecalis D32); assay: cell_activity
T3 chain: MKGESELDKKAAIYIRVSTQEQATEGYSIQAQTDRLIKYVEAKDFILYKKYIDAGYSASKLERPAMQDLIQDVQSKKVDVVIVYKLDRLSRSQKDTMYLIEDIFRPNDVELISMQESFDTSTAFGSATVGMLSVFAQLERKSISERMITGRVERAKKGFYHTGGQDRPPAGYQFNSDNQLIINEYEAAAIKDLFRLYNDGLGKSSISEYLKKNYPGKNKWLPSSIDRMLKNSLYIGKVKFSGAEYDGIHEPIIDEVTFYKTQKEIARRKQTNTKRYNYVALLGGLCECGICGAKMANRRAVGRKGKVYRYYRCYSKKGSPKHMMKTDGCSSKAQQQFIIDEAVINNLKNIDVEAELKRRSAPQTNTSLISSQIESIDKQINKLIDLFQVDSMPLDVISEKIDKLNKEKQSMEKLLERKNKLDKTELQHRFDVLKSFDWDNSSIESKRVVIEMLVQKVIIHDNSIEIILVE

[4] = target: T4, Int22 (Geobacillus thermoglucosidasius C56-YS93); assay: cell_activity; attB x attP EGFP inversion reporter, HEK293FT
T4 chain: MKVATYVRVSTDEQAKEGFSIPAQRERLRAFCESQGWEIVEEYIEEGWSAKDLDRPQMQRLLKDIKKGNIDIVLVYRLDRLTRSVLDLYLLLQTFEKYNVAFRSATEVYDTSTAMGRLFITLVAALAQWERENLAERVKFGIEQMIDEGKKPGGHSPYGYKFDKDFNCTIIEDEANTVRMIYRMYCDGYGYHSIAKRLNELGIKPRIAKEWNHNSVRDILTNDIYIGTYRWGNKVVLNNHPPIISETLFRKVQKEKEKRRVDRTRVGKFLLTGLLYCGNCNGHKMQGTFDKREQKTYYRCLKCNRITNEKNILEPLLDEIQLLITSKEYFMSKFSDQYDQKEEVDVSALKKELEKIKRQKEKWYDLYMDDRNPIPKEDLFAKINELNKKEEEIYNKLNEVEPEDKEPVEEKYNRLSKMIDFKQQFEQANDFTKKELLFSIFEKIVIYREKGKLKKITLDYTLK

[5] = target: T5, Int15 (Listeria monocytogenes SLCC2372 (phage …)); assay: cell_activity
T5 chain: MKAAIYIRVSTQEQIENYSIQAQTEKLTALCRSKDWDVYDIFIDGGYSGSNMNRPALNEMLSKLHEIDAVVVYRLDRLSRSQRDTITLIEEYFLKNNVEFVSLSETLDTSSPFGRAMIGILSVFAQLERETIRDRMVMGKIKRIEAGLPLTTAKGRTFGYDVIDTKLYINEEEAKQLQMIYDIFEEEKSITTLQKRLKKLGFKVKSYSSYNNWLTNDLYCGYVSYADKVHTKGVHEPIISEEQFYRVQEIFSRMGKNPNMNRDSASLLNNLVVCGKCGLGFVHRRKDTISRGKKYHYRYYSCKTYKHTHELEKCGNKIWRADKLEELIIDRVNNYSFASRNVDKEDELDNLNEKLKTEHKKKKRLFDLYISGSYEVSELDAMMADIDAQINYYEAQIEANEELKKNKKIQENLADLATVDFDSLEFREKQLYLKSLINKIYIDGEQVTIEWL

[6] = target: T6, Int13 (Bacillus cytotoxicus NVH 391-98); assay: cell_activity; attB x attP EGFP inversion reporter, HEK293FT
T6 chain: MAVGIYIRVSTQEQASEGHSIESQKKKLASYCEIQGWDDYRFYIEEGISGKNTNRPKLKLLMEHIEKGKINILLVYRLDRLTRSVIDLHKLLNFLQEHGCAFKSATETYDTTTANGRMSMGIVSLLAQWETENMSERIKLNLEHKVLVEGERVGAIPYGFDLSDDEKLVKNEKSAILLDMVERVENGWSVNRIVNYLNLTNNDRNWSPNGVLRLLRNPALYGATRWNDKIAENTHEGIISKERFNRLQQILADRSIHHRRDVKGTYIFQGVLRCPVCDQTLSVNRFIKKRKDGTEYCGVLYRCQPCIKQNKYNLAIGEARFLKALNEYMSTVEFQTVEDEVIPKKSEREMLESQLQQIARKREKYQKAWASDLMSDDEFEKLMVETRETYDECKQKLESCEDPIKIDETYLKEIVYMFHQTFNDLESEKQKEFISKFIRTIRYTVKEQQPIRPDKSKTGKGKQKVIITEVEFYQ

[7] = target: T7, Int18 (Streptococcus pneumoniae JJA); assay: cell_activity
T7 chain: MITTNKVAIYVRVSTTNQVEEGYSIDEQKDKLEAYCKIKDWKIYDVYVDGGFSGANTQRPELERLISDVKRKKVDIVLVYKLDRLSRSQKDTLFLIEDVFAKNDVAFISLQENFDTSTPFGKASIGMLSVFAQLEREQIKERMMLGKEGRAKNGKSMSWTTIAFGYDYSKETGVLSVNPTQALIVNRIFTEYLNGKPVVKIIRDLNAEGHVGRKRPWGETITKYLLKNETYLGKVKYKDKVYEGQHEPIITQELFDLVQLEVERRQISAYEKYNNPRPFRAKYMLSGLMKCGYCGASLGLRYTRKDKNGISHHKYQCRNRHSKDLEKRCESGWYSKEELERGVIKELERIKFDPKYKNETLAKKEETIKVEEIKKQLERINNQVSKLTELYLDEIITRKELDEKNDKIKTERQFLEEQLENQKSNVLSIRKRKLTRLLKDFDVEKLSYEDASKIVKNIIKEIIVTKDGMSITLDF

B1: Int21 attP (dsDNA)
DNA 1: GTTAATAATATGTATTTAAGTCTAACTTATCATGACAAATTTGACTAAAATACAAAAAGGC
DNA 2: GCCTTTTTGTATTTTAGTCAAATTTGTCATGATAAGTTAGACTTAAATACATATTATTAAC
- binding signal [1]: 0.184 fraction of Bxb1

B2: Int14 attB (dsDNA)
DNA 1: TTATTGCAAGAAAAATGGGTTATAAGTACACATCAGGTTATAGTAATATCGAAAAAGGAAGC
DNA 2: GCTTCCTTTTTCGATATTACTATAACCTGATGTGTACTTATAACCCATTTTTCTTGCAATAA
- binding signal [2]: 0.248 fraction of Bxb1

B3: Int16 attP (dsDNA)
DNA 1: GTATCTTGATGTACAACATTACTCTTTATTTTCAAATACAGAATAATGTTGCATATAATATT
DNA 2: AATATTATATGCAACATTATTCTGTATTTGAAAATAAAGAGTAATGTTGTACATCAAGATAC
- binding signal [3]: 0.21 fraction of Bxb1

B4: Int22 attB (dsDNA)
DNA 1: CAAGAAACGTTCCGTCTGTTTGTGTCAGCTGCGCGAAATTAATGACCGGATCGTTTGTTCC
DNA 2: GGAACAAACGATCCGGTCATTAATTTCGCGCAGCTGACACAAACAGACGGAACGTTTCTTG
- binding signal [4]: 0.945 fraction of Bxb1

B5: Int15 attP (dsDNA)
DNA 1: TTGTTTAGTCCCTCGTTTTCTCTCGTTGGACGGAGACGAATCGAGAAACTAAAATTATAAAT
DNA 2: ATTTATAATTTTAGTTTCTCGATTCGTCTCCGTCCAACGAGAGAAAACGAGGGACTAAACAA
- binding signal [5]: 1.86 fraction of Bxb1

B6: Int13 attB (dsDNA)
DNA 1: CGCATACATTGTTGTTGTTTTTCCAGATCCAGTTGGTCCTGTAAATATAAGCAATCCATGTGAGT
DNA 2: ACTCACATGGATTGCTTATATTTACAGGACCAACTGGATCTGGAAAAACAACAACAATGTATGCG
- binding signal [6]: 0.295 fraction of Bxb1

B7: Int18 attP (dsDNA)
DNA 1: TATTTCTGTATTTTAGTCAAAGTAATTAAGATAAGTTAGAGTTAGTAACAGTATTTTAACTT
DNA 2: AAGTTAAAATACTGTTACTAACTCTAACTTATCTTAATTACTTTGACTAAAATACAGAAATA
- binding signal [7]: 1.76 fraction of Bxb1

B8: Int16 attB (dsDNA)
DNA 1: TTCTGGACCATGATGCGCCACTTCCGAAATTTCAAAAAGATCAGTGGTCAAACGGCTCATTA
DNA 2: TAATGAGCCGTTTGACCACTGATCTTTTTGAAATTTCGGAAGTGGCGCATCATGGTCCAGAA
- binding signal [3]: 0.21 fraction of Bxb1

B9: Int21 attB (dsDNA)
DNA 1: TAGGAGGAAAAAATATGTATAATAAAGTTATCATGATTGGGCGTTTGACGTCTACACCAGAAT
DNA 2: ATTCTGGTGTAGACGTCAAACGCCCAATCATGATAACTTTATTATACATATTTTTTCCTCCTA
- binding signal [1]: 0.184 fraction of Bxb1

B10: Int18 attB (dsDNA)
DNA 1: TCTGGTGTAGACGTTAAACGTCCAATCAAGATAACTTTATTATACATATTTTCTTCCTCCTA
DNA 2: TAGGAGGAAGAAAATATGTATAATAAAGTTATCTTGATTGGACGTTTAACGTCTACACCAGA
- binding signal [7]: 1.76 fraction of Bxb1

B11: Int13 attP (dsDNA)
DNA 1: CAATAACGGTTGTATTTGTAGAACTTGACCAGTTGTTTTAGTAACATAAATACAACTCCGAATA
DNA 2: TATTCGGAGTTGTATTTATGTTACTAAAACAACTGGTCAAGTTCTACAAATACAACCGTTATTG
- binding signal [6]: 0.295 fraction of Bxb1

B12: Int22 attP (dsDNA)
DNA 1: TTATAAACCTGTTTTAAAGTTAACTTTACATGCCTAACATTAACTCTTATACAGGTTAAGGT
DNA 2: ACCTTAACCTGTATAAGAGTTAATGTTAGGCATGTAAAGTTAACTTTAAAACAGGTTTATAA
- binding signal [4]: 0.945 fraction of Bxb1

B13: Int14 attP (dsDNA)
DNA 1: TTATATAAAATAGTGTTTTTGTAAAGTACACATCACCATATTTGACAAAAAACCTATAAATA
DNA 2: TATTTATAGGTTTTTTGTCAAATATGGTGATGTGTACTTTACAAAAACACTATTTTATATAA
- binding signal [2]: 0.248 fraction of Bxb1

B14: Int15 attB (dsDNA)
DNA 1: CTGTAACTTTTTCGGATCAAGCTATGAGGGACGCAAAGAGGGAACTAAACACTTAATTGGTG
DNA 2: CACCAATTAAGTGTTTAGTTCCCTCTTTGCGTCCCTCATAGCTTGATCCGAAAAAGTTACAG
- binding signal [5]: 1.86 fraction of Bxb1
